# Laboratory results taken from paper doi:10.1101/2021.07.02.450967 (bioRxiv, 2021).
# Values joined by “and” are separate entries in the source; they are usually repeats but may differ in a detail not shown here. Identical values can stand only once.
# B1: HEY1, made in the cell-free protein production system (natural protein)
# chain: MKRAHPEYSSSDSELDETIEVEKESADENGNLSSALGSMSPTTSSQILARKRRRGIIEKRRRDRINNSLSELRRLVPSAFEKQGSAKLEKAEILQMTVDHLKMLHTAGGKGYFDAHALAMDYRSLGFRECLAEVARYLSIIEGLDASDPLRVRLVSHLNNYASQREAASGAHAGLGHIPWGTVFGHHPHIAHPLLLPQNGHGNAGTTASPTEPHHQGRLGSAHPEAPALRAPPSGSLGPVLPVVTSASKLSPPLLSSVASLSAFPFSFGSFHLLSPNALSPSAPTQAANLGKPYRPWGTEIGAF
# Biological target: T1, SOX7, made in the cell-free protein production system (UniProt Q9BT81 1-388)
# T1 sequence: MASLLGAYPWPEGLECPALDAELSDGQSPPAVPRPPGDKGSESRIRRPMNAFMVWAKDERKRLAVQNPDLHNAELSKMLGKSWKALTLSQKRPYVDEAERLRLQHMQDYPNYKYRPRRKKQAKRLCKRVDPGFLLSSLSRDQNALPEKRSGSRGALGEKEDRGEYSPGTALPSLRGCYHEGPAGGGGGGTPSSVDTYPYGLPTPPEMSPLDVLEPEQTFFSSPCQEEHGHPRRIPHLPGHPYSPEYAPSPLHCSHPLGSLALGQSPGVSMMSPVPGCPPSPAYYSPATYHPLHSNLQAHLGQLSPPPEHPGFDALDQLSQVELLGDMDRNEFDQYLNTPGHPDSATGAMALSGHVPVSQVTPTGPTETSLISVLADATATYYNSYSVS
# Assay: single molecule two-colour coincidence spectroscopy
binder,measurement,value
B1,stoichiometry N,"1 HEY1 per SOX7 (1:1) and 2 HEY1 per SOX7 (1:2, order as printed)"
